# Tests used:
# Experiment in all cases: cell-based or functional assay
# [1] = target: SARS-CoV-2 spike (S) protein, BA.1 variant (SARS-CoV-2) (UniProt P0DTC2)
# [2] = target: SARS-CoV-2 spike (S) protein, BA.2.12.1 variant (SARS-CoV-2) (UniProt P0DTC2)
# [3] = target: SARS-CoV-2 spike (S) protein, BA.2.75 variant (SARS-CoV-2) (UniProt P0DTC2)
# [4] = target: SARS-CoV-2 spike (S) protein, BA.2.75.2 variant (SARS-CoV-2) (UniProt P0DTC2)
# [5] = target: SARS-CoV-2 spike (S) protein, BA.4.6 variant (SARS-CoV-2) (UniProt P0DTC2)
# [6] = target: SARS-CoV-2 spike (S) protein, BA.4/5 variant (SARS-CoV-2) (UniProt P0DTC2)
# [7] = target: SARS-CoV-2 spike (S) protein, variant BJ.1 (SARS-CoV-2) (UniProt P0DTC2)
# [8] = target: SARS-CoV-2 spike (S) protein, variant BQ.1.1 (SARS-CoV-2) (UniProt P0DTC2)
# [9] = target: SARS-CoV-2 spike (S) protein, variant XBB (SARS-CoV-2) (UniProt P0DTC2)
# [10] = target: SARS-CoV-2 spike (S) protein, variant BA.2.86 (SARS-CoV-2) (UniProt P0DTC2)
# [11] = target: SARS-CoV-2 spike (S) protein, variant CH.1.1 (SARS-CoV-2) (UniProt P0DTC2)
# [12] = target: SARS-CoV-2 spike (S) protein, variant EG.5.1 (SARS-CoV-2) (UniProt P0DTC2)
# [13] = target: SARS-CoV-2 spike (S) protein, variant JN.1 (SARS-CoV-2) (UniProt P0DTC2)
# [14] = target: SARS-CoV-2 spike (S) protein, variant KP.2 (SARS-CoV-2) (UniProt P0DTC2)
# [15] = target: SARS-CoV-2 spike (S) protein, variant KP.2.3 (SARS-CoV-2) (UniProt P0DTC2)
# [16] = target: SARS-CoV-2 spike (S) protein, variant KP.3 (SARS-CoV-2) (UniProt P0DTC2)
# [17] = target: SARS-CoV-2 spike (S) protein, variant KP.3.1.1 (SARS-CoV-2) (UniProt P0DTC2)
# [18] = target: SARS-CoV-2 spike (S) protein, variant LB.1 (SARS-CoV-2) (UniProt P0DTC2)
# [19] = target: SARS-CoV-2 spike (S) protein, variant XEC (SARS-CoV-2) (UniProt P0DTC2)
# [20] = target: SARS-CoV-2 spike (S) protein, D614G (SARS-CoV-2) (UniProt P0DTC2)
# [21] = target: SARS-CoV-2 spike (S) protein, variant BA.2.86 (SARS-CoV-2)
# [22] = target: SARS-CoV-2 spike (S) protein, variant CH.1.1 (SARS-CoV-2)
# [23] = target: SARS-CoV-2 spike (S) protein, variant EG.5.1 (SARS-CoV-2)
# [24] = target: SARS-CoV-2 spike (S) protein, variant JN.1 (SARS-CoV-2)
# [25] = target: SARS-CoV-2 spike (S) protein, variant KP.2 (SARS-CoV-2)
# [26] = target: SARS-CoV-2 spike (S) protein, variant KP.2.3 (SARS-CoV-2)
# [27] = target: SARS-CoV-2 spike (S) protein, variant KP.3 (SARS-CoV-2)
# [28] = target: SARS-CoV-2 spike (S) protein, variant KP.3.1.1 (SARS-CoV-2)
# [29] = target: SARS-CoV-2 spike (S) protein, variant LB.1 (SARS-CoV-2)
# [30] = target: SARS-CoV-2 spike (S) protein, variant XEC (SARS-CoV-2)
substance,measurement,setting,value
LY-CoV-1404 (antibody),pseudotyped neutralization potency IC50,[1],0.002 µg/mL
same,pseudotyped neutralization potency IC80,[1],0.005 µg/mL
same,pseudotyped neutralization potency IC50,[2],0.0013 µg/mL
same,pseudotyped neutralization potency IC80,[2],0.004 µg/mL
same,pseudotyped neutralization potency IC50,[3],0.003 µg/mL
same,pseudotyped neutralization potency IC80,[3],0.015 µg/mL
same,pseudotyped neutralization potency IC50,[4],0.001 µg/mL
same,pseudotyped neutralization potency IC80,[4],0.005 µg/mL
same,pseudotyped neutralization potency IC50,[5],0.0004 µg/mL
same,pseudotyped neutralization potency IC80,[5],0.0014 µg/mL
same,pseudotyped neutralization potency IC50,[6],0.0014 µg/mL
same,pseudotyped neutralization potency IC80,[6],0.003 µg/mL
same,pseudotyped neutralization potency IC50,[7],> 10 µg/mL
same,pseudotyped neutralization potency IC80,[7],> 10 µg/mL
same,pseudotyped neutralization potency IC50,[8],> 10 µg/mL
same,pseudotyped neutralization potency IC80,[8],> 10 µg/mL
same,pseudotyped neutralization potency IC50,[9],> 10 µg/mL
same,pseudotyped neutralization potency IC80,[9],> 10 µg/mL
VYD222 (antibody),neutralizing activity IC50 (µg/ml (caption; values match nM)),[10],14.2
same,neutralizing activity IC80 (µg/ml (caption; values match nM)),[10],36.7
same,neutralizing activity IC50 (µg/ml (caption; values match nM)),[11],9.93
same,neutralizing activity IC80 (µg/ml (caption; values match nM)),[11],30.4
same,neutralizing activity IC50 (µg/ml (caption; values match nM)),[12],6
same,neutralizing activity IC80 (µg/ml (caption; values match nM)),[12],20.9
same,neutralizing activity IC50 (µg/ml (caption; values match nM)),[13],4.71
same,neutralizing activity IC80 (µg/ml (caption; values match nM)),[13],15.6
same,neutralizing activity IC50 (µg/ml (caption; values match nM)),[14],4.56
same,neutralizing activity IC80 (µg/ml (caption; values match nM)),[14],16.5
same,neutralizing activity IC50 (µg/ml (caption; values match nM)),[15],28.4
same,neutralizing activity IC80 (µg/ml (caption; values match nM)),[15],66.3
same,neutralizing activity IC50 (µg/ml (caption; values match nM)),[16],8.83
same,neutralizing activity IC80 (µg/ml (caption; values match nM)),[16],39.5
same,neutralizing activity IC50 (µg/ml (caption; values match nM)),[17],27.2
same,neutralizing activity IC80 (µg/ml (caption; values match nM)),[17],> 67
same,neutralizing activity IC50 (µg/ml (caption; values match nM)),[18],30.8
same,neutralizing activity IC80 (µg/ml (caption; values match nM)),[18],> 67
same,neutralizing activity IC50 (µg/ml (caption; values match nM)),[19],> 67
same,neutralizing activity IC80 (µg/ml (caption; values match nM)),[19],> 67
same,neutralization IC50,[20],0.01 µg/mL
same,neutralization IC50,[21],2.13 µg/mL
same,neutralization IC50,[22],1.49 µg/mL
same,neutralization IC50,[23],0.899 µg/mL
same,neutralization IC50,[24],0.706 µg/mL
same,neutralization IC50,[25],0.684 µg/mL
same,neutralization IC50,[26],4.25 µg/mL
same,neutralization IC50,[27],1.32 µg/mL
same,neutralization IC50,[28],4.05 µg/mL
same,neutralization IC50,[29],4.62 µg/mL
same,neutralization IC50,[30],> 10 µg/mL

# — patent US20250326823A1
